From the DeepSol protein solubility set

Experiment: soluble on expression in E. coli; label from the status in PepcDB or PDB records

Row | Sequence | soluble on expression in E. coli
1 | MGSDKIHHHHHHLAKAELTQIPVSQMVIGLTVKLPLSWTNHPFFRSKVKLEQQVQIEMIKGLDVSFVYVIEGHDLLPHVSEPVEIEQPEEVVEQEIDYRPLAKKSMRISQQRFVKSVNDSRTVFGKIVSDPEGAYREAATLVEDLVDHLYESETPQLTIVGSGEIDVSVTQHGISVAVLSMMIAHSLVLSKKDVRDIALGSLFHDIGKLKVPDAIRRKKRGDLSDHEINFLKMHPNFGYDMLNRTGLFPEAMLDIVLHHHEFIDGSGFPNQLTEAKILLTTQVVSLANDYETLLNLHRTPQIALGILFKTHSGKHADNLIAVLVKILGIYPPGTIVRLTDDSIAKVMMTTADVKQPHVWSCNLSGGEPSFRFLINEDVQVQEVMKLDELTDGAVKTLQANNPISFYFNNFDH | not soluble
2 | MWQCHLSAQDYRYYPVDGYSLLKRFPLHPLTGPRCPVQTVGQWLESIGLPQYENHLMANGFDNVQFMGSNVMEDQDLLEIGILNSGHRQRILQAIQLLPKMRPIGHDGYHPTSVAEWLDSIELGDYTKAFLINGYTSMDLLKKIWEVELINVLKINLIGHRKRILASLGDRLHDDPPQKPPRSITLRTGDWGEPSITLRPPNEATASTPVQYWQHHPEKLIFQSCDYKAFYLGSMLIKELRGTESTQDACAKMRANCQKSTEQMKKVPTIILSVSYKGVKFIDATNKNIIAEHEIRNISCAAQDPEDLSTFAYITKDLKSNHHYCHVFTAFDVNLAYEIILTLGQAFEVAYQLALQARKGGHSSTLPESFENKPSKPIPKPRVSIRKSVDLLHASHTGQEPSERHTEEALRKF | soluble
3 | AHHHHHHGSKNLYLPITIDHIARVEGKGGVEIIIGDDGVKEVKLNIIEGPRFFEAITIGKKLEEALAIYPRICSFCSAAHKLTALEAAEKAVGFVPREEIQALREVLYIGDMIESHALHLYLLVLPDYRGYSSPLKMVNEYKREIEIALKLKNLGTWMMDILGSRAIHQENAVLGGFGKLPEKSVLEKMKAELREALPLAEYTFELFAKLEQYSEVEGPITHLAVKPRGDAYGIYGDYIKASDGEEFPSEKYRDYIKEFVVEHSFAKHSHYKGRPFMVGAISRVINNADLLYGKAKELYEANKDLLKGTNPFANNLAQALEIVYFIERAIDLLDEALAKWPIKPRDEVEIKDGFGVSTTEAPRGILVYALKVENGRVSYADIITPTAFNLAMMEEHVRMMAEKHYNDDPERLKILAEMVVRAYDPCISCSVHVVRL | soluble
4 | MHLELHQINGNDPLGTIIGERNYQLPIPLPYTMKTVKQIHSGIWHTVIRGYDQYNRPQIATFGKNYDGQLGTGDCENRDTPTPIKLPPEMLTFHAIQTGFFHTIATGLDKNGFPIVASCGYNSDGQLGCGDKDNKNTLIPIKLPENMKSVEMVATGVKHTVIVGKDINNKPVVATCGHNGYGQLGTGDEENRLCLTPIGIPEDITSVDYVGAGAYHTVICGRNIKNQPIITLCGCNSDGELGFAPQKIAKKSSLMTNPAMFFPPRQDKSAINNLMKISKFSPCNLL | not soluble
5 | MGSDKIHHHHHHMHIAPHDNQNKPIVDAEHDLVPLNYFNIVKLRRGEVFEYAVPGYETCVVPATGTVDIDVEGAIYPDLGNRTEDVWDGEPEGVYVPVGAKVRITCKTDVTETFIAGAKYDKVLEPFDVRADALDVVQYGSDDTKTHRKIKHILGANHHDKVGRLLVSELYTVGEGGWSGFPSHKHDTDRLPDETRHDETYNFRFKPNYGSGVQMLQREDNQPGDAYHIMDGSTVLIDKGYHPCAVLPGYQMYYFTILGGLSQRSLKQYFQPTHAEQLHTIPGIMDMVAKFK | not soluble
6 | MIEFTALDDLSLLRESVSLECKLAQGRDGKGALPDDFWPTYSAMANTDGGIVILGVRERKGQFEVAGIENPDKLRTELFNHLNNRQKVSVNLLRDEDVRAWPVEGKTLLVVEIPRARRQQRPVYLRGNPLGGHTYRRLHEGDRPLPDEDVKRMLAEQVEDSRDERILPGYGLDDLHLESLRAYRQLFANRDPSHPWNALADQAFLRQIGGWRQHRETGEAGLTLAGLLMFGQWSSITEAVPLCFLDYQERPADYATTVQWLDRIVPDGTWSGNVFDFYRRVVGKLTADIKVPFVLKGDIRQDDTPTHKALREALVNTLVHADYTGRISVLVVKEPAGFVLRNPGGLRVPAQQALQGGMSDCRNRTMQQMFLMIGLGERAGSGMSRIVHGWRDLGHELHLRESYEPHEHSVLEMFWAKGRGATLASESSEESSEESSEETGKKILHLLREEPSLTASALARRLQLTPRAIEKQLEHHHHHH | not soluble
7 | ASWSHPQFEKSGGGGGLVPRGSKRADAGTASALAASQLPQATMPGKSMVAIAGSSYQGQNGLAIGVSRISDNGKVIIRLSGTTNSQGKTGVAAGVGYQW | soluble
8 | MTMVQVTLEVNGRQVAHEAPPRMHLGDFLRDQARLTGTHLGCEHGVCGACTVLVDGQPVRSCITYAVACEGRQVTTIEGYDGDPVMARLRAAFTKYHALQCGYCTPGMLTTSRDIVLRLPDADEARVRVELSGNLCRCTGYMGIVGAVMSVLRDLREQPDAAVQALRAAAADGRLPAPRGEQPIAFQPFTPSAPAAAQAAPRPAAAASPASGKGNQIVDAFTVPFPAAEVWAFMVDLPAVAACLPGAVIEETDGQRVKGKIAIKFGPMAAAFNGAARLERDEEAMRAVFRGAGQDSLSQSRATGDIAYQVEAVSENETRVKVDLQYALQGPLAQFSRSGLVQDFVRRMIADFGKNVTARLRQPGGEALPQAQFNPVAMFFSVLWMRVKRWFGRGGLEHHHHHH | not soluble
9 | MSTPRIVVGVSGGVDSSVAAWKLAQQGEPIAGLFMQNWADDGSGDCRAEDDRRDAVAVCGVLGIPFHFRDFSGEYWSDVFEHFLAEYAAGRTPNPDVLCNREVKFKHFLDAAQALGAERIATGHYAQVAHRGGRWRLLRGADRGKDQSYFLHQLGQTQLAATLFPIGDLEKSTLRRIAQDAGLPTHAKKDSTGICFIGERDFREFLGRYLPARTGEIRDPQGQRIAEHPGVFYFTLGQREGLNIGGVRGRAAAPWYVVGKDVANNVLYVDQDRDSPLLQSRWLQSEQAHWVTGAPPARRFSCTAQTRYRQPDESCTVDVQDDGSVQVRFERPQRAVTPGQSLVLYDGEECLGGAVIAATDAPLERQLAGSSFSSEVVALEHHHHHH | not soluble
10 | AEQDMYLLRQSFDKYKTVSAGVPWFSALFGRDSLITASQTLMLNPEIAKETLMLLAAYQGKHEDEWREEAPGKILHELRLGEMARCQEIPHTPYYGTVDATPLWLMLYSEYYSWTHDRETLEQLWPHALAAMDWIDRNMQPSGYLTYHRKSKRGLDNQGWKDSGDCIVDRKGDLANGSIALSEVQAYVYAAKTRLAEIARMKKRLDLFERWQEEARSLKERFNQDFWIEDQDFCALALDGAGKQVDSITSNPGHCLLLGIFTPERAYSVAERLRAPDMFNGWGIRTLSSLSPAYNPMGYHIGSVWPHDNSLIAMGLRSLGLIDQALEIFQGLLDMTSQQPYQRPPELFCGYERNGDRSPVQYPVACTPQAWATGSIFQ | not soluble
11 | PIPAWASGNLLTQAIRQQYYKPIDVDRMYGTIDSPKLEELFNKS | soluble
12 | MLGKSLVKEKITDSVVSSPNGLVLLAPEMTLPVDVEENKPEESKDSAHERNCATAGVESPSNPVDSCLKLTYVEEGDNDRESNLKLLDGSVEEKEDTKKLTDIDINSLPDEVDDSHADQSDTKEQEIDDKEDKTPLSDDGCEGKAEGTKESNQQPDSNKVDNSQPLGNGGTGEELGNRTLALKREVTPTLRASPRLIQRSWRTSRVNQKFTGTTNAVLLDSPHRCV | soluble
13 | MSLIRMALAAVCALLFSITTMTPFVQASEITISGSTSVARIMDVLAEKYNQQHPETYVAVQGVGSTAGISLLKKGVADIAMTSRYLTESEAQNTLHTFTLAFDGLAIVVNQANPVTNLTREQLYGIYKGQITNWKQVGGNDQKIAVVTREASSGTRYSFESLMGLTKTVKDREVSDVAPTALVVNSNSMMKTLVNHNTQAVGFISIGSVDKSVKAIQFEKADPTSDNIAKHTYQLSRPFLILHYSDNADEQTKEFIAFLKSESAKKLIVEYGYIMPSDVEEGGSHHHHHH | soluble
14 | MAHHHHHHVGTGSNDDDDKSPDPTQDVREPPALKYGIVLDAGSSHTSMFVYKWPADKENDTGIVGQHSSCDVQGGGISSYANDPSKAGQSLVRCLEQALRDVPRDRHASTPLYLGATAGMRLLNLTSPEATARVLEAVTQTLTQYPFDFRGARILSGQDEGVFGWVTANYLLENFIKYGWVGRWIRPRKGTLGAMDLGGASTQITFETTSPSEDPGNEVHLRLYGQHYRVYTHSFLCYGRDQILLRLLASALQIHRFHPCWPKGYSTQVLLQEVYQSPCTMGQRPRAFNGSAIVSLSGTSNATLCRDLVSRLFNISSCPFSQCSFNGVFQPPVAGNFIAFSAFYYTVDFLTTVMGLPVGTLKQLEEATEITCNQTWTELQARVPGQKTRLADYCAVAMFIHQLLSRGYHFDERSFREVVFQKKAADTAVGWALGYMLNLTNLIPADLPGLRKGTHF | soluble
15 | MSLILVTGAAGFIGSHLCEQLLMNEKVSVVGVDGHIDSSLCKVKERNVRNLLKHPRFTLLKQDLLTIDLEPLVDQVDVIYHLSGIPGVRSSWGTDFKKYVTHNIVATQQLLEACRRHSLEKFIYISTSSVYGQKNGKVGEKASPTPLSPYGVSKLTGEHLCNVYYRNFSIPTVILRYFTVYGPRQRQDMAFHRFIKAIIDNQPIPIFGDGNQSRDFTYIDDCIAATCAVLHADVIGETINIGGKERATVLQIISMLESIFQKDAKLQFLEKPFGEPMSTWADISKAEKLLRYSPNVPLLQGIEKEVDEGHHHHHH | soluble
16 | MCVVIFLKFLFSDNGNNQHGTEAAFGRLAQSYRIQDLLFIIVIFFRAIHIMMFHRPPSARPPLNHVDQLKSLQATALGKPGMRSQATEPQPIGNTVSPLEFRIHDMNRRLYIFSSTGVSENDQQQWWDAFSHEFFDDDCKLWFVIGSEPVAFASRERYIINRQFIPKFFRSIFDSGMRELQYVLRGPSRECTLANGSQAYENENVLQITRYDQSSQFEVNTEGKLYVEFAPFDEVMNYRIKAWTLELKRSNEFVYNQNTADYRVEAQNPEQENKPRMGFFKSTFNLMTMLKILDPMQSIMSSAKSAPAITPREVMKRTLFQHHQVRQQNMRQQQLNQQMMIPAPEPEKPKPARKRQRKPAANPRGSKKATAAAAAAAAAATNGVPPTVPTASPANNQQFPPNPMTSQFQQMSYPDVMVVGEPSMMGSEFGENDERTISRVENSQYDPNAMQMQSLGQGPNSSMNINGRNMMNQHHPGMQPPPGQQHMPPHSMGSQMPTSMHNPMHMPPGSMQGHGGMPPMPSTMANQMPPPNLPPHTMSNQMPNSRMPPMQGQMPPSGMPGQMSNPNMMGSGMPPMSMSSQMPGSMSNPMPNQMPGGMQMNQMPPPNYSQYTGGPPPQWPPPNSAMITG | not soluble
17 | MGSDKIHHHHHHMIEHFNPWWKGREGIEEDEDYRKWIGSEVRWVPEVIKKISLEPFSLNIIFGPRQVGKTTLLKLIVKKLLDEGKNPRSIFYLRCDYISDYKELMNVIDEYLEIKETEGIKSSYILLDEVTFPKEWFRAIKLYIDMGKFRNDVLILTGSTSMYTKGEVETFPGRRGKGKDAVMLPLTFREFIKIASPKLHSVLPRINSLNKVEECLKAIPFIEELNSLFKLYLISGGFPRAVKDLLKHNKVSEETYETYISWMRGDILKLGKSEEVARRIMKTIIKKLPSPVSWHGIAKEIDIGSHKTVFSYIELFERMFLIRVLPYIDPDKLEADFKREKKVHLIDPFLYHLVSRWTLTEEPSEDKIVESVVATHVARRYEVGYWRDGREIDVVTREGVGIEVKWSDNVKVSPVKVGKIRKVITLSKSKFSRDPLVIPVSVFLSCI | not soluble
